Assays:
[1] = biological target: hPD-1 (Sino Biological Inc., Catalog No.: 10377-H03H-B) (human) (UniProt Q15116); experiment: BLI (Octet) as in Example 4, biotinylated hPD-1 on streptavidin biosensor
[2] = biological target: T1, hPD-1 on hPD-1-expressing Jurkat cells (Promega, Catalog No.: J1252) (human, UniProt Q15116 25-288); experiment: cell-based or functional assay
[3] = biological target: T1, hPD-1 on hPD-1-expressing Jurkat cells …; experiment: flow cytometry, blocking of 1 ug/mL unlabeled hPD-L1 binding to hPD-1-expressing Jurkat cells
Method: The blocking of ligand binding was assayed by flow cytometry. […] The mixture was placed on ice for 30 minutes, washed 3 times with FACS buffer (PBS containing 0.3% BSA), and incubated with PE-labeled goat anti-human Fc on ice for another 30 minutes. Cells were washed three more times with FACS buffer and analyzed by flow cytometry. Data were analyzed using nonlinear regression of Prism software, and IC₅₀ values were calculated.

[4] = biological target: T2, hPD-1 (Sino Biological Inc., Catalog No.: 10377-H03H-B) (human, UniProt Q15116 25-167); experiment: BLI (ForteBio Octet), biotinylated hPD-1 on streptavidin biosensor, antibody in solution, 1:1 global fit
T2 construct: Bought protein; also called human PD-1; purified hPD-1
T2 sequence (Q15116 25-167): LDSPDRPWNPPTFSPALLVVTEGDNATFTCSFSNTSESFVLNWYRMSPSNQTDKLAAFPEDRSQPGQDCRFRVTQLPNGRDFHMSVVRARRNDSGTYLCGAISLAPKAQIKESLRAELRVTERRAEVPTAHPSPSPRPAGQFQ
Method: The assay was performed by coupling a hPD-1 fusion protein to a streptavidin biosensor using biotin.
(§1) A streptavidin biosensor was pre-wetted by immersing in PBS in a well for 10 minutes, and then the biosensor was equilibrated with PBS for 2 minutes. The biosensor was immersed in the solution of 20 μg/mL biotinylated hPD-1 in PBS for 5 minutes to couple with biotinylated hPD-1, and then was equilibrated with PBS for 2 minutes. The biosensors were placed in wells containing antibody solutions of various concentrations (0.125 to 2 nM, SDS-PAGE purity >99%) to observe their binding to the anti-PD-1 antibody, and the binding was monitored and measured for 30 minutes. After the biosensor was transferred to PBS, dissociation was monitored and measured for 90 minutes. The observed binding and dissociation rates (kbinding and kdissociation) were fitted with a 1:1 binding global fit model containing all test concentrations, and the equilibrium binding constant KD was calculated.

[5] = biological target: T2, hPD-1 (Sino Biological Inc., Catalog …); experiment: ELISA, hPD-1 coated on the plate
Method: The binding of the antibodies to hPD-1 was determined by enzyme-linked immunosorbent assay (ELISA). hPD-1 was coated on a 96-well plate by incubation overnight at 4° C. After coating, the plate was washed 5 times with PBST. […] After the binding, the plate was washed 5 times with PBST. The resulting solution was incubated at room temperature in PBST that contained peroxidase (HRP)-labeled goat anti-mouse IgG solution diluted to 1/10000 for 1 hour, washed again, and developed with TMB.

[6] = biological target: T2, hPD-1 (Sino Biological Inc., Catalog …); experiment: BLI (Octet) as in Example 4, biotinylated hPD-1 on streptavidin biosensor
Method: as §1
The amino acid sequences of VL and VH regions of the related antibodies are shown in the sequence listing.

[7] = biological target: T2, hPD-1 (Sino Biological Inc., Catalog …); experiment: SPR (Biacore), antibody captured on protein A chip, PD-1 in solution 0.625-10 nM, 1:1 Langmuir fit
Method: A protein A chip was used for detection. […] Then the flow rate was adjusted to 30 μl/min, and PD-1 solutions of different concentrations (0.625 nM, 1.25 nM, 2.5 nM, 5 nM, and 10 nM) were fed in sequence, with a binding time of 180 s and a dissociation time of 1,200 s.

hPD-1 (Sino Biological Inc., Catalog No.: 10377-H03H-B) (human), sequence (Q15116 25-167): as above
T1 sequence (Q15116 25-288): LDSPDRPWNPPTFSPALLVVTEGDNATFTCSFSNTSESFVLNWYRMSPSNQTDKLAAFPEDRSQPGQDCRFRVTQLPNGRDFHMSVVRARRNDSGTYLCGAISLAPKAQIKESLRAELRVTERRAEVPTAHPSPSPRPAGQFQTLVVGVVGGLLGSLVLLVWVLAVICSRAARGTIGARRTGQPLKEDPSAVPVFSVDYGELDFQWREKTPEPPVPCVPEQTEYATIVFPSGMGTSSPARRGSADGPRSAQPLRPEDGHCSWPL

| Binder | Kd [1] [nM] | EC50 [5] [nM] | Kd [6] [nM] | also measured |
| --- | --- | --- | --- | --- |
| CL1 VH (SEQ ID NO: 7) / CL1 VL (SEQ ID NO: 8), scFv (scFv, part only; not given: linker, domain order, tag, V domains shown, not shown: another chain or arm of the molecule; small tags and cut ends) VH: QVQLVQSGVEVKKPGASVKVSCKASGYTFTNYYMYWVRQAPGQGLEWMGGINPSNGGTNFNEKFKNRVTLTTDSSTTTAYMELKSLQFDDTAVYYCAARDYRLDMGFEFWGQGTTVTVSS VL: EIVLTQSPATLSLSPGERATLSCRASKGVSTSGYSYLHWYQQKPGQAPRLLIYLASYLESGVPARFSGSGSGTDFTLTISSLEPEDFAVYYCQHAYDLPLTFGGGTKVEIK | 0.082 | – | – | – |
| CL1 VH (SEQ ID NO: 7) / CL2 VL (SEQ ID NO: 38), scFv (scFv, part only; not given: linker, domain order, tag, V domains shown, not shown: another chain or arm of the molecule; small tags and cut ends) VH: QVQLVQSGVEVKKPGASVKVSCKASGYTFTNYYMYWVRQAPGQGLEWMGGINPSNGGTNFNEKFKNRVTLTTDSSTTTAYMELKSLQFDDTAVYYCAARDYRLDMGFEFWGQGTTVTVSS VL: EIVLTQSPATLSLSPGERATLSCRASKGVSTSGYSYLHWYQQKPGQAPRLLIYLASYLESGVPARFSGSGSGTDFTLTISSLEPEDFAVYYCQHSYGLPLTFGGGTKVEIK | 0.447 | – | – | – |
| CL1 VH (SEQ ID NO: 7) / CL9 VL (SEQ ID NO: 12), scFv (scFv, part only; not given: linker, domain order, tag, V domains shown, not shown: another chain or arm of the molecule; small tags and cut ends) VH: QVQLVQSGVEVKKPGASVKVSCKASGYTFTNYYMYWVRQAPGQGLEWMGGINPSNGGTNFNEKFKNRVTLTTDSSTTTAYMELKSLQFDDTAVYYCAARDYRLDMGFEFWGQGTTVTVSS VL: EIVLTQSPATLSLSPGERATLSCRASKGVSTSGYSYLHWYQQKPGQAPRLLIYLASYLESGVPARFSGSGSGTDFTLTISSLEPEDFAVYYCQHSYGLPVTFGGGTKVEIK | 0.518 | – | – | – |
| antibody CL1 (antibody, human IgG4 S228P, kappa, V domains shown, also called anti-hPD-1 antibody CL1; CL1 VH / CL1 VL IgG4) VH: QVQLVQSGVEVKKPGASVKVSCKASGYTFTNYYMYWVRQAPGQGLEWMGGINPSNGGTNFNEKFKNRVTLTTDSSTTTAYMELKSLQFDDTAVYYCAARDYRLDMGFEFWGQGTTVTVSS VL: EIVLTQSPATLSLSPGERATLSCRASKGVSTSGYSYLHWYQQKPGQAPRLLIYLASYLESGVPARFSGSGSGTDFTLTISSLEPEDFAVYYCQHAYDLPLTFGGGTKVEIKR | – | 0.208 | 0.0207 | Assay for the functional activity EC50 [2]: 0.269 µg/mL; IC50 [3]: 0.77 nM; Kd [4]: 0.0207 nM; koff [4]: 4.11e-05 s⁻¹; kon [4]: 1.98e+06 M⁻¹ s⁻¹; Kd [7]: 0.606 nM; koff [7]: 0.0005 s⁻¹; kon [7]: 825000 M⁻¹ s⁻¹ |
| CL1 VH (SEQ ID NO: 7) / CL7 VL (SEQ ID NO: 40), scFv (scFv, part only; not given: linker, domain order, tag, V domains shown, not shown: another chain or arm of the molecule; small tags and cut ends) VH: QVQLVQSGVEVKKPGASVKVSCKASGYTFTNYYMYWVRQAPGQGLEWMGGINPSNGGTNFNEKFKNRVTLTTDSSTTTAYMELKSLQFDDTAVYYCAARDYRLDMGFEFWGQGTTVTVSS VL: EIVLTQSPATLSLSPGERATLSCRASKGVSTSGYSYLHWYQQKPGQAPRLLIYLASYLESGVPARFSGSGSGTDFTLTISSLEPEDFAVYYCQHSYSFPLTFGGGTKVEIK | 0.149 | – | – | – |
| CL1 VH (SEQ ID NO: 7) / CL5 VL (SEQ ID NO: 10), IgG4 (antibody, V domains shown, Form IgG4) VH: QVQLVQSGVEVKKPGASVKVSCKASGYTFTNYYMYWVRQAPGQGLEWMGGINPSNGGTNFNEKFKNRVTLTTDSSTTTAYMELKSLQFDDTAVYYCAARDYRLDMGFEFWGQGTTVTVSS VL: EIVLTQSPATLSLSPGERATLSCRASKGVSTSGYSYLHWYQQKPGQAPRLLIYLASYLESGVPARFSGSGSGTDFTLTISSLEPEDFAVYYCQHSYDLPLTFGGGTKVEIK | – | – | 0.076 | – |
| CL1 VH (SEQ ID NO: 7) / CL5 VL (SEQ ID NO: 10), scFv (scFv, part only; not given: linker, domain order, tag, V domains shown, not shown: another chain or arm of the molecule; small tags and cut ends) VH: QVQLVQSGVEVKKPGASVKVSCKASGYTFTNYYMYWVRQAPGQGLEWMGGINPSNGGTNFNEKFKNRVTLTTDSSTTTAYMELKSLQFDDTAVYYCAARDYRLDMGFEFWGQGTTVTVSS VL: EIVLTQSPATLSLSPGERATLSCRASKGVSTSGYSYLHWYQQKPGQAPRLLIYLASYLESGVPARFSGSGSGTDFTLTISSLEPEDFAVYYCQHSYDLPLTFGGGTKVEIK | 0.143 | – | – | – |
| CL1 VH (SEQ ID NO: 7) / CL2 VL (SEQ ID NO: 38), IgG4 (antibody, V domains shown, Form IgG4) VH: QVQLVQSGVEVKKPGASVKVSCKASGYTFTNYYMYWVRQAPGQGLEWMGGINPSNGGTNFNEKFKNRVTLTTDSSTTTAYMELKSLQFDDTAVYYCAARDYRLDMGFEFWGQGTTVTVSS VL: EIVLTQSPATLSLSPGERATLSCRASKGVSTSGYSYLHWYQQKPGQAPRLLIYLASYLESGVPARFSGSGSGTDFTLTISSLEPEDFAVYYCQHSYGLPLTFGGGTKVEIK | – | – | 0.189 | – |
| antibody CL5 (antibody, human IgG4, V domains shown) VH: QVQLVQSGVEVKKPGASVKVSCKASGYTFTNYYMYWVRQAPGQGLEWMGGINPSNGGTNFNEKFKNRVTLTTDSSTTTAYMELKSLQFDDTAVYYCAARDYRFDMGFEYWGQGTTVTVSS VL: EIVLTQSPATLSLSPGERATLSCRASKGVSTSGYSYLHWYQQKPGQAPRLLIYLASYLESGVPARFSGSGSGTDFTLTISSLEPEDFAVYYCQHSYDLPLTFGGGTKVEIK | – | 0.399 | – | Assay for the functional activity EC50 [2]: 0.932 µg/mL |
| antibody CL2 (antibody, human IgG4, V domains shown) VH: QVQLVQSGVEVKKPGASVKVSCKASGYTFTNYYMYWVRQAPGQGLEWMGGINPSNGGTNFNEKFKNRVTLTTDSSTTTAYMELKSLQFDDTAVYYCAARDYKFDMGFEYWGQGTTVTVSS VL: EIVLTQSPATLSLSPGERATLSCRASKGVSTSGYSYLHWYQQKPGQAPRLLIYLASYLESGVPARFSGSGSGTDFTLTISSLEPEDFAVYYCQHSYGLPLTFGGGTKVEIK | – | 0.451 | – | – |
| CL1 VH (SEQ ID NO: 7) / CL9 VL (SEQ ID NO: 12), IgG4 (antibody, V domains shown, Form IgG4) VH: QVQLVQSGVEVKKPGASVKVSCKASGYTFTNYYMYWVRQAPGQGLEWMGGINPSNGGTNFNEKFKNRVTLTTDSSTTTAYMELKSLQFDDTAVYYCAARDYRLDMGFEFWGQGTTVTVSS VL: EIVLTQSPATLSLSPGERATLSCRASKGVSTSGYSYLHWYQQKPGQAPRLLIYLASYLESGVPARFSGSGSGTDFTLTISSLEPEDFAVYYCQHSYGLPVTFGGGTKVEIK | – | – | 0.229 | – |
| CL1 VH (SEQ ID NO: 7) / CL7 VL (SEQ ID NO: 40), IgG4 (antibody, V domains shown, Form IgG4) VH: QVQLVQSGVEVKKPGASVKVSCKASGYTFTNYYMYWVRQAPGQGLEWMGGINPSNGGTNFNEKFKNRVTLTTDSSTTTAYMELKSLQFDDTAVYYCAARDYRLDMGFEFWGQGTTVTVSS VL: EIVLTQSPATLSLSPGERATLSCRASKGVSTSGYSYLHWYQQKPGQAPRLLIYLASYLESGVPARFSGSGSGTDFTLTISSLEPEDFAVYYCQHSYSFPLTFGGGTKVEIK | – | – | 0.061 | – |
| antibody CL9 (antibody, human IgG4, V domains shown) VH: QVQLVQSGVEVKKPGASVKVSCKASGYTFTNYYMYWVRQAPGQGLEWMGGINPSNGGTNFNEKFKNRVTLTTDSSTTTAYMELKSLQFDDTAVYYCAARDYKFDMGFEFWGQGTTVTVSS VL: EIVLTQSPATLSLSPGERATLSCRASKGVSTSGYSYLHWYQQKPGQAPRLLIYLASYLESGVPARFSGSGSGTDFTLTISSLEPEDFAVYYCQHSYGLPVTFGGGTKVEIK | – | 0.594 | – | – |
| antibody CL7 (antibody, human IgG4, V domains shown) VH: QVQLVQSGVEVKKPGASVKVSCKASGYTFTNYYMYWVRQAPGQGLEWMGGINPSNGGTNFNEKFKNRVTLTTDSSTTTAYMELKSLQFDDTAVYYCAARDYRFDMGFEFWGQGTTVTVSS VL: EIVLTQSPATLSLSPGERATLSCRASKGVSTSGYSYLHWYQQKPGQAPRLLIYLASYLESGVPARFSGSGSGTDFTLTISSLEPEDFAVYYCQHSYSFPLTFGGGTKVEIK | – | 0.346 | – | – |
| antibody CL6 (antibody, human IgG4, V domains shown) VH: QVQLVQSGVEVKKPGASVKVSCKASGYTFTNYYMYWVRQAPGQGLEWMGGINPSNGGTNFNEKFKNRVTLTTDSSTTTAYMELKSLQFDDTAVYYCAARDYRFDMGFEFWGQGTTVTVSS VL: EIVLTQSPATLSLSPGERATLSCRASKGVSTSGYSYLHWYQQKPGQAPRLLIYLASYLESGVPARFSGSGSGTDFTLTISSLEPEDFAVYYCQHSYDLPLTFGGGTKVEIK | – | 1.34 | – | – |
